Measured values: patent publication US8927205

Key:
[1] = target: TNFR1-Fas receptor chimera on mouse fibroblasts from TNFR1/TNFR2 double-knockout mice (MF TNFR1-Fas cells) (UniProt P19438); assay: cell-based or functional assay
[2] = target: normal human wild-type TNF receptors on Kym1 cells; assay: cell-based or functional assay

Chain of TNFR1-Fas receptor chimera on mouse fibroblasts from TNFR1/TNFR2 double-knockout mice (MF TNFR1-Fas cells) (P19438 other isoform, or with tags, fused parts or gaps mutant limits assumed): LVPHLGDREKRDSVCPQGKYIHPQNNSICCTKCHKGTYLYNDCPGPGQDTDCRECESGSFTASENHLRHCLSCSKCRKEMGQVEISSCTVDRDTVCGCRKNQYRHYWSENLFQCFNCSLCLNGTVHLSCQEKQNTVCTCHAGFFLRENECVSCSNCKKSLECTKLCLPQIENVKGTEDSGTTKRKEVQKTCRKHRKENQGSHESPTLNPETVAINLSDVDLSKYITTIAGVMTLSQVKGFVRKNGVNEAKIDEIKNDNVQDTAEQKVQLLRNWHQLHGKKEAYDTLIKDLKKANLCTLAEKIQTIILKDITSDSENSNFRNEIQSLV

Substance: soluble human wild-type TNF (from UniProt P01375 57-233) (ligand)
- ED50 (half-maximal effective concentration), cytotoxicity on MF TNFR1-Fas cells, freshly prepared dilutions [1]: 0.2 ng/mL
- ED50, cytotoxicity on MF TNFR1-Fas cells, dilutions stored 8 days at 37° C. before the test [1]: 2 ng/mL
- ED50, cytotoxicity on MF TNFR1-Fas cells, solutions stored 14 days at 37° C. before the test [1]: 2.8 ng/mL
- ED50, cytotoxicity on Kym1 cells, solutions stored 16 days at 37° C. (FIG. 8) [2]: 1.2 ng/mL
- ED50 after 8 days (FIG. 12), stored at 37° C. in 100% human serum, cytotoxicity on Kym1 cells [2]: 0.4 ng/mL
- ED50 after 22 days (FIG. 9), cytotoxicity on Kym1 cells, samples stored at 37° C. [2]: 1.5 ng/mL
- ED50 freshly titrated (FIG. 7), cytotoxicity on Kym1 cells [2]: 0.1 ng/mL
- ED50 freshly titrated (FIG. 11), diluted in 100% human serum, cytotoxicity on Kym1 cells [2]: 0.004 ng/mL
